This note sets out measurements from the nanobody polyreactivity screen of Harvey et al. (2022).

The data set is described as follows: yeast display, Sf9 membrane polyspecificity reagent, FACS + sequencing; frameworks hold sequencing errors. The essentials: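 After 36–48 hours of galactose induction, yeast (Saccharomyces cerevisiae BJ5465) displaying a synthetic nanobody library were stained at 4 °C for 1 hour with 10% biotinylated, detergent-solubilized Sf9 membrane reagent. Streptavidin microbeads enriched the stained cells before FACS sorting into low and high (top ~1%) gates on anti-HA and streptavidin fluorescence. Each clone's polyreactivity label reflects its gate of origin.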
With “QVQLVESGGGLVQAGGSLRLSCAASGRTFDVYAMGWYRQAPGKEMELVAAITRRGGSTYYADSVKGRFTISRDNAKNTVNLQMNRLKPEDTAVYYCSAAYSRGSGVGRYRLDYWGKGTQVTVSS”, the “polyreactivity (PSR sort gate)” value is “high polyreactivity”. The entry for “QVQLLESGGGLVQAGGSLRLSCAASGRIFKFKAMGWYRQAPGKERQLVAATWSGGRTSYADSVKGRITISRDNAKYTVYLQMNSLKPEDTAVYYCAARWFDGDWDYWYDYWGQGTQVTVSS” is “low polyreactivity”; for “QVQLVESGGGIVQAGGSLRLSCAASGFIFDQNAMGWYRQAPGKERELVAAISKRGGSTYYADSVKGRFTISRDNAKNTVYLQMNSLKREDTAVYYCATRSWGPYYYGYNHWGQGTQVTVSS” it is “high polyreactivity”. With “QVQLVESGGGLVQAGGSLRLRCAASGRIQPGNAMGWYRQATGKERELVAAISSGGRTNYADSVKGRFTISRDIAKITVYLQMNSLKPEDTAVYYCAKRTVWWSIWHYYPPTYNYWGQGTQVTVSS”, the “polyreactivity (PSR sort gate)” value is given as “high polyreactivity”.

Turning to “QVQLVESGGGLVQAGGSLRLSCAASGGIFYGYAMGWYRQAPGKERELVASISSDDRTNNADSVKGRFTISRDNAKNTVYLQMNSLKPEDTAVYSCNAELGSDTSNFDYWGQGTQVTVSS”, the “polyreactivity (PSR sort gate)” value was “low polyreactivity”. With “QVQLVESGGGLVQAGGSLRLSCAASGLTFVWYGMGRYRQAPGKERELVAAITRGGSTYYADSVKGRFTISRDNAKNTVYLQMNSLKPEDTAVYYCAARRWERRVRPGYYPYDYWGQGTQVTVSS”, the “polyreactivity (PSR sort gate)” value was “high polyreactivity”. The entry for “QVHLVESGGGLVQAGGRLRLSCAASALTYAYYAMGRYREAPRKERELVAAITTGGTTNYADSVKGRFTISRDNAKNTVYLQMNSLKTEDTAVYYCARLYRSGYEYWGQGTQVTVSS” is “low polyreactivity”; for “QVQLVESGGGLVQEGGSLRLICAASGIIFYFYAMGWYRQAPGKERELVAAISSGGGSTYYADSVKGRFTISRDNAKNTVYLQMNSLKPEDTAVYYCAAKIGRNFDWGQGTQVTVSS” it is “high polyreactivity”; for “QVQLVESGGGLVQAGGSLRLSCAASGSTFSYYDMGWYREAPGKERELVAVITTSGVSTYYADSVKGRFTISRDNAKNTVYLQMNSLKPEDTAVYYCNADYGYDSVVEYDYWGQGTQVTVSS” it is “low polyreactivity”.

As to “QVQLVESGGCLVQAGGSLRLSCAATGRIFKRYVMGWYRQAPGKERELVAAISQRGGSTNYADSVKGRFTISRDNAKNTVYLQMNSLKPEDTAVYYCAAGFFSRYDYWGQGTQVTVSS”, the “polyreactivity (PSR sort gate)” value is reported as “high polyreactivity”.

On to “QVQLVESGGGLVQAGGSLRLSCAASGRIIYKYAMGWYRQAPGKERELVAAISYSGGSTYYADSVKGRFTISRDNAKNTVYLQMKSLKPEDTAVYYCNAKPPYGVRSWGDYWGQGTQVNVSS”, for which the “polyreactivity (PSR sort gate)” value is “low polyreactivity”.

For the sequence “QVQLVESGGGLVQAGGSLRLSCAASGIIFSWYAMGWYRQAPGKERELVASITIGGNTNYADSVKGRFTISRDNAKNTVYLQMNSLKPEDTAVYYCAAQTFWYGYGGGDYWGEGTQVTVSS”, the “polyreactivity (PSR sort gate)” value was “low polyreactivity”.

Take “QVQLVESGGGLVQAGGSLRLSCAASGFTFRIYAMGWYRQAPGKERELVAAITWSGGSTSYADSVKGRFTISRDNAKNTVYLQMNSLKPEDTAVYYCAAETKYSGAYPYDYWGQGTQVTVSS”: the “polyreactivity (PSR sort gate)” value is on record as “high polyreactivity”. Turning to “QVQLVESGGGLVQAGGSLGLSCAASGSIFGYYALGWYRPAPGKERELVAAISWSDGSTYYADSVKGRFTISRDNAKNTVYLQMNSLKPEDTAVYDCAARFTPYITSADGHYDYWGQGTQVTVSS”, the “polyreactivity (PSR sort gate)” value is on record as “low polyreactivity”. For the sequence “QVQLVESGGGLVQAGGSLRLSCAASGGTFWYYAMGWYRQAPGKERELVASISRGGSTNYADSVKGRFTISRDNAKNTVYLQMNSLKPEDTAVYYCNAGLRVGPRRYVDYEYDYWGQGTQVTVSS”, the “polyreactivity (PSR sort gate)” value was “low polyreactivity”. To “QVQLVESGGGLVQAGGSLRLSCAASGSIFFSNAMGWYSPAPGKEREIVAGIRSGGITNYADSVKGRFTISRDNAKNTVYLEMNSLKPEDTAVYYCAKLNDHGRYAYAFDYWGQGTQVTVSS” belongs “low polyreactivity”; to “QDQLVEAGGGLVQAGGSLRLSCAASGFIFSRNAMGWYRQAPGKEGELVAAISSTGGITYYADSVKGRFSISRDNAKNTVYLQLTSLKPEDTAVYFCAAGFYGYARHTWYNYWGQGTQVTVSS”, “high polyreactivity”. To “QVQLVESGGGLVQAGGSLRLSCADSGSIQYYAMGWYRQAPGKERELVAAITWSGVSTSYADSVKGRFTISRDNAKNTVYLQMNRLKPEDTAVYYCNKDPGTLYGDLDSWGQGTQVTVSS” belongs “low polyreactivity”; to “QVQLVESGGGLVQAGGSLRLSCAASGRNPMGWYRQAPGKDRELVASISRTGGSTYYADSVKGRFTISRDNAKNTDYLQMNSLKPEDTAVYYCNYFRRPPMYYWGQGTQVTVSS”, “high polyreactivity”; to “QVQLVESGGGLVQAGGSLRLSCAASGRIFPPNAMGWSRQAPGKERELVAAITRGGSTYYADSVKGRFTISRDNAKNTVYLQMNSLKPEDTAVYYCATVPWYIKVGQKRNDYWGQGTQVTVSS”, “high polyreactivity”. To “QVQLVESGGGLVQAGGSLRLSCAASGRTFKGYTMGWYRQAPGKERELVAAITRSGGGTYYADSVKGRFTISRDNAKNTVYLQMNSLKPEDTAVYYCAARRPGYYYPSKFDYWGQGTQVTVSS” belongs “high polyreactivity”; to “QVQLVESGGGLVQAGGSLRLSWAASGITFYGNAMGWYRAAPGKEREFVAAISTRDGTTYADSVKGRFTISRDNAKNTVYLQRNSLKPEDTAVYYCAAAYYYDGQQGDFAYWGQGTQVTVSS”, “low polyreactivity”; to “QVQLVESGGGLVQAGGSLRLSSAASGRLFSEYAMGWYRQAPGKERELVAAISRRGGRTYYADSVKGRFTISRDNAKNTVYVQMNSLIPEDTAVYYCAADHGDPGGYDYWGQGSQVTVSS”, “high polyreactivity”.

For the sequence “QVQLVESGGGLVQAGGSLRLSCAASGRIFGSYAMGWYRQAPGKERELVAAISWSGGRTYYADSVKGRFTISRDNAKNTVYLQMNSLKPEDTAVYYCNALVFGRYRDMDYWGQGTQVTVSS”, the “polyreactivity (PSR sort gate)” value was “high polyreactivity”. As to “QVQLVESGGGLVQAGGSLRLSCAASGLIFIAYAMRWYRQAPGKERELVAAISSSGGSTYYADSVKGRFTISRDNAKNTVYLQMNSLKPEDTAVYYCAADRYAWGTGRYGYWGQGTQVTVSS”, the “polyreactivity (PSR sort gate)” value is reported as “low polyreactivity”. The entry for “QVQLVESGGGFVQAGGSLRLSCAASGRIFGPYAMGWYRQAPGKERELVAVITNSGSTNYADSVKGRFTISRDNAKNTVYLQMNSLKPEDTAVYYCNRVEGGAYGSNFDYWGQVTQVTVSS” is “high polyreactivity”.

With “QVQLVESGVCLVQAGGSLRLSCAATGSIFEYNAMGWYRQAHGKERELVAAITRGGNTYYADSVKGLFTISRDNAKNTVYLQMNSLKPEDTAVYYCAAVEWYGYPYYYWGQGTQVTVSS”, the “polyreactivity (PSR sort gate)” value is reported as “low polyreactivity”. Consider “QLQLVESGGGLVQAGGSLRLSCAASGSNISYYAMGWSRQAPGKERELVAAISKRGASTYYADSVKGRFTISRDKAKNTVFLQMNSLKPEDTAVYYCAAYRQGSAYDYWGQGTQVTVSS”, for which the “polyreactivity (PSR sort gate)” value is reported as “high polyreactivity”. In the case of “QVQLVESGGGLVQAGGSLRLSCAASGRTFRIYAMGWYRQAPGKEREFVAAITWSGGRTYYADSVKGRFTISRDNAKNTVYLQMNSLKPEDTAVYYCAADPTYLRTLRFGSYDYWGQGNQVTVSS”, the “polyreactivity (PSR sort gate)” value is recorded as “high polyreactivity”. Take “QVQLVESGGGLVQAGGSLRLSCAASGITLRRYAMGWYRQAPGKDRELVDVISVSGGRTHYADSVKGRFTISRDNAKNSVYLQMNSLNPEDTAVYYGAAHFSYRYYTDEVGYWGQGTQVTVSS”: the “polyreactivity (PSR sort gate)” value was “high polyreactivity”. To “QVQRVESGGGLVQAGGSLRLSCAASGSTFYDNTMGWYRPAPGKERELVAAITGTGGNTYYADSVKGRFTISRDNAKNTDYLQMNSLKPEDTAVYYWNRVPVYYYRYGYWGQGTQVTVSS” belongs “low polyreactivity”; to “QVQLVETGGGLVQAGGSLRLSCAASGRTFGNYAMGWYRQAPGKERELVAAITSAGRTYYADSVKGRFTISRDNAKNTVYLQMNSLKPEDTAVYYCAVSVIYWSGSQVSVEYYYWGQGTQVTVSS”, “low polyreactivity”. The entry for “QVQLVDSGGGLVQAGGSLRLSCAASGRIFIVNPMGRYRQAPGKEREFVAAITSRGGITYYADSVKGRFTISRDNAKNTVYLQMNTLKPEDTAVYYFAAGYISWGSGNWGVTPYDYWGQGTQVTVSS” is “high polyreactivity”. The entry for “QVQLVESGGGLVQAGVSLRLSCAASGITLYRYVMGWNRQAPGKERELVADISGRGTSTYYADSVKGRFTSSRDYAKNTVYLQMYRLKPEATAVYYCNAEYTKTGALGIPYTYYYAEDYWGQGTQVTVSS” is “low polyreactivity”; for “QVQLVESGGGLVQAGGSLRLSCAASGITFERYVMGWYIQAPGKERELVASISRSGSTFYADSVKGRFTISRDNAKNTVYLQMNSLKPEDTAVYYCNADRFWFHWVYSRYHYDYWGQGTQVTVSS” it is “high polyreactivity”. Take “QVQLVESGGGLVQAGGSLRLSCAASGSIFDYYAMGWYRQAPGKERELVAAISWRGGRTYYADSVKGRFTISRDNAKNTVYLQMNSLKPEDTAVYYCAAYFQRSGFSFRLRGQGTQVTVSS”: the “polyreactivity (PSR sort gate)” value is on record as “high polyreactivity”. The entry for “QVQLVESGGGLVQAGGSLRLSCAASGSIFKPYAMGWYRQAPGKERELVAAISRSGSTYYADSVKGRFTISRDNAKNSVYLQMNSLKPEVTAVFYCAAETQARWRRYDYWGQGSQVTVSS” is “low polyreactivity”; for “QVQLVESGGGLVQAGGSLRLSCAASGSIIDYYARGWYRQAPGKERELVAAISDSGSTYYADSVKGRFTISRDNAKNTVYLQMNSLKPEDTAVYYCAAVLWSPYRSEPLDTYEYWGQGTQVNVSS” it is “low polyreactivity”; for “QVQLVESGGGLVQAGGSLRLSCAASGSTFERYAMGWYRQAPGKKWSWLPYADSVKGRFTISRDNAKNTVYLQMNSLKPEDTAVYYCNAERDSPPLNLDRGWEYDYWGQGTQVTVSS” it is “low polyreactivity”. The entry for “QVQLVESGGGLVQAGGSLRLSCAASGITFYAYVMGWYRQAPGKERELVAAISGGGSTYYADSVKGRFTISRDNAKNTVYLQMNSLKPEDTAVYYCNAELSFWDLGYDYWGQGTQVTVSS” is “low polyreactivity”; for “QVQLVESGGGVVQAGGSLRLICAASGSTFHSYVMGWYRQAPWKERELVAAITSRGGSTNYADSVKGRFTISRDNAKNTVYLQLNSQKPEDTAVYCCAADGYLGWSYCRYDYWGQGTQVTVSS” it is “low polyreactivity”.
